According to patent US20100081620A1:
Values belong to the binder of their own block, whether it stands above or below them.

Assays:
[1] = target: Human ADAM10 protease containing the catalytic/disintegrin domains (human) (UniProt O14672); assay: cell-based or functional assay
[2] = target: T1, ADAM 8 catalytic domain (mouse) (mouse) (UniProt Q05910); assay: cell-based or functional assay
T1 sequence (looked up): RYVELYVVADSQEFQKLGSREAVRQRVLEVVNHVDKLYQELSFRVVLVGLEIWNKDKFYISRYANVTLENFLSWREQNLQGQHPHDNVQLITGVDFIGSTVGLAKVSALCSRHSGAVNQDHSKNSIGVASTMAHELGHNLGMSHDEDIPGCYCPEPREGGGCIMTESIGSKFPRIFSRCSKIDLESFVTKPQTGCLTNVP

[3] = target: TACE catalytic domain (human) (human) (UniProt P78536); assay: cell-based or functional assay
MMP 14 = assay: enzyme inhibition, fluorescent peptide substrate
MMP 1 = assay: enzyme inhibition, fluorescent peptide substrate
MMP 2 = assay: enzyme inhibition, fluorescent peptide substrate
MMP 3 = assay: enzyme inhibition, fluorescent peptide substrate
MMP 13 = assay: enzyme inhibition, fluorescent peptide substrate
MMP 9 = assay: enzyme inhibition, fluorescent peptide substrate
[4] = target: Human TACE protease containing the catalytic/disintegrin domains (human) (UniProt P78536); assay: cell-based or functional assay
Human TACE protease containing the catalytic/disintegrin domains (human), sequence (P78536 215-671 limits assumed): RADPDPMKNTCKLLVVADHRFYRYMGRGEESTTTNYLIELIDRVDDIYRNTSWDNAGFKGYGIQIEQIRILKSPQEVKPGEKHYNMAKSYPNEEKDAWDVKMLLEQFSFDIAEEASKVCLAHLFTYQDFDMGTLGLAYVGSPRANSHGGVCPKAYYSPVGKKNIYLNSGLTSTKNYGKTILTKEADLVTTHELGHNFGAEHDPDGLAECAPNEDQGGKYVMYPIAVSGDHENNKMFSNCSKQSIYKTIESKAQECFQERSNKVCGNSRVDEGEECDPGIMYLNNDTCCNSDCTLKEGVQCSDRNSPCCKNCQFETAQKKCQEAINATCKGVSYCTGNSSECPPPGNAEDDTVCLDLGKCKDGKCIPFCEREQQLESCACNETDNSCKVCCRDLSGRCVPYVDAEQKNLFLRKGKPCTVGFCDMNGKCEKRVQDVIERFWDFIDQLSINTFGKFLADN

TACE catalytic domain (human) (human), sequence (P78536 215-477 limits assumed): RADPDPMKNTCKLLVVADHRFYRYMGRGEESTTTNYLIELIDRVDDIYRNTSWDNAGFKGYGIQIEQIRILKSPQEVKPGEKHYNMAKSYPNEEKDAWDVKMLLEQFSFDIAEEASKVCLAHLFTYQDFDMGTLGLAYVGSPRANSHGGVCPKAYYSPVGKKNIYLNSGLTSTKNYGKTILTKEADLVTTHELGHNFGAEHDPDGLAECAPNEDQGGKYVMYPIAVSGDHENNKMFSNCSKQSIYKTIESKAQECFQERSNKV
Human ADAM10 protease containing the catalytic/disintegrin domains (human), sequence (O14672 214-672 limits assumed): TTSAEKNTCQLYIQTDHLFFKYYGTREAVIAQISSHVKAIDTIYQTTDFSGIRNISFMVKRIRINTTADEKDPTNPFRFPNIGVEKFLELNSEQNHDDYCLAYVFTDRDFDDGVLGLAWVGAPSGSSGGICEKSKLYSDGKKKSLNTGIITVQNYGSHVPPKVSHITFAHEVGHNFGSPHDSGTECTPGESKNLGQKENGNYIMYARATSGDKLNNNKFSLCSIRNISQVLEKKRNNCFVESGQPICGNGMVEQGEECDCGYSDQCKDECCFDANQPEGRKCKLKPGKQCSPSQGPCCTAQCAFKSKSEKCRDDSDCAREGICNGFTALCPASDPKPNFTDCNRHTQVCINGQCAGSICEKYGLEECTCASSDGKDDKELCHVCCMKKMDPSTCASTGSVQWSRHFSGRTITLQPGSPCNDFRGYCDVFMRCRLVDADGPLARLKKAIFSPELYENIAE
MMP 3, sequence (P08254 100-477): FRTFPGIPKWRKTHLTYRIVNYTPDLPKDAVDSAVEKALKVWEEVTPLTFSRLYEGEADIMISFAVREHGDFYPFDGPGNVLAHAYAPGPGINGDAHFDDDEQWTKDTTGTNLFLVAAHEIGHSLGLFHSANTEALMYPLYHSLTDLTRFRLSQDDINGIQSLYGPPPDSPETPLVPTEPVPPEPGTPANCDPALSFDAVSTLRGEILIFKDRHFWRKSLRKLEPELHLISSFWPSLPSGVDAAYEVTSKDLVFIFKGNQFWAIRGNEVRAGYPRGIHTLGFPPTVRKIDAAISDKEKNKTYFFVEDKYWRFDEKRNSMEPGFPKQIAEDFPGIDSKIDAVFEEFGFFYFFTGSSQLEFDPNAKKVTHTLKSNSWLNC
MMP 1, sequence (P03956 100-469): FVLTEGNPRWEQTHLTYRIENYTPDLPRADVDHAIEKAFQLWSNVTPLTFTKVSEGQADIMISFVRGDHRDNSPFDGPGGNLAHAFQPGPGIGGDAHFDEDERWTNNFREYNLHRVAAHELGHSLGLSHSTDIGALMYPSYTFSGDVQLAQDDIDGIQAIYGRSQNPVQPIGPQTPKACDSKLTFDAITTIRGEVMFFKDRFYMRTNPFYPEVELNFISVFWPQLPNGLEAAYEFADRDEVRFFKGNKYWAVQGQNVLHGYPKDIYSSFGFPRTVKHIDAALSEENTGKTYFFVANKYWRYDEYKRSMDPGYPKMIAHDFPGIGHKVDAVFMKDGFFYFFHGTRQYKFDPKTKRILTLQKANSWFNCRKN
MMP 2, sequence (P08253 110-660): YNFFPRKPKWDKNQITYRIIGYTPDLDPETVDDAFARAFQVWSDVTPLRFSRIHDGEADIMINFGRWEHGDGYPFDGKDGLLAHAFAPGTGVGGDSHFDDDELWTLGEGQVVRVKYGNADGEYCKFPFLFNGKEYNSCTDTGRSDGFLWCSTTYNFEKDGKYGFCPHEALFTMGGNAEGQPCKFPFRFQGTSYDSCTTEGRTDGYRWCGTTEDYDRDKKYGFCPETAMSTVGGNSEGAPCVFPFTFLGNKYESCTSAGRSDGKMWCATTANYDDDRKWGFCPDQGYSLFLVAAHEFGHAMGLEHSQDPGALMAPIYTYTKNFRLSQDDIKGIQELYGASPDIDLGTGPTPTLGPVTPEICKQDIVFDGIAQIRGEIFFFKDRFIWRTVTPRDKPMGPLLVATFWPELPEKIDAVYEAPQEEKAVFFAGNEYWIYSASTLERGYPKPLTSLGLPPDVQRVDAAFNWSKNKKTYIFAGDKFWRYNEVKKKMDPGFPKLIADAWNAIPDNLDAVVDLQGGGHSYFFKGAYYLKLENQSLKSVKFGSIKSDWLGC
MMP 9, sequence (P14780 107-707): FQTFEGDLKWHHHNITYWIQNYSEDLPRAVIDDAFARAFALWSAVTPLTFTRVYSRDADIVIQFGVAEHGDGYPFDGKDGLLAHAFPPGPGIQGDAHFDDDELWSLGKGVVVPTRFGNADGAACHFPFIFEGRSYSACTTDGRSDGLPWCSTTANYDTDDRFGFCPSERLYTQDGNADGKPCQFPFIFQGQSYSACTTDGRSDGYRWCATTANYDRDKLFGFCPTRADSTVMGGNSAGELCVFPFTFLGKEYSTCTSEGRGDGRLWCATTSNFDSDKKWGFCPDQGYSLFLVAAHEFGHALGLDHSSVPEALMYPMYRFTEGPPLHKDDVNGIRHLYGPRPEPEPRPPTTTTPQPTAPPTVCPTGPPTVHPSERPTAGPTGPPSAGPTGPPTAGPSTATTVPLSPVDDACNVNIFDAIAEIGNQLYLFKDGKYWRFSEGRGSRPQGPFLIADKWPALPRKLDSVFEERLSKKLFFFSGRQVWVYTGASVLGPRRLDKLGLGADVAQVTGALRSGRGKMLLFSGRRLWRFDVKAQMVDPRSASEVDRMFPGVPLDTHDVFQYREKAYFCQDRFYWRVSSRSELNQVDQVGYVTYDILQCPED

prodomain inhibition of enzyme activity (percent) [1]: 11%
prodomain inhibition of enzyme activity (percent) [2]: 17%
prodomain inhibition of enzyme activity (percent) [3]: 37%
B1: Pro ADAM 17 (mouse) (protein, UniProt Q9Z0F8 18-214, looked up, not shown: small tags and cut ends)
chain: PRPPEEAGSGSHPRLEKLDSLLSDYDILSLANIQQHSIRKRDLQSATHLETLLTFSALKRHFKLYLTSSTERFSQNLRVVVVDGKEESEYSVKWQNFFSGHVVGEPDSRVLAHIGDDDVTVRINTDGAEYNVEPLWRFVNDTKDKRMLVYKSEDIKDFSRLQSPKVCGYLNADSEELLPKGLIDREPSEEFVRRVKR

Ki (MMP 14): > 2000 nM
Ki (MMP 1): > 2000 nM
Ki (MMP 2): > 2000 nM
Ki (MMP 3): > 2000 nM
Ki (MMP 13): > 2000 nM
Ki (MMP 9): > 2000 nM
B2: wt ProADAM 10 23-213 (C-terminal His tag) (protein)
chain: NPLNKYIRHYEGLSYNVDSLHQKHQRAKRAVSHEDQFLLLDFHAHGRQFNLRMKRDTSLFSDEFKVETSNKVPDYDTSHIYTGHIYGEEGSFSHGSVIDGRFEGFIKTRGGTFYIEPAERYIKDRILPFHSVIYHEDDINYPHKYGPQGGCADHSVFERMRKYQMTGVEEGARAHPEKHAASSGPELLRKKHHHHHH

prodomain inhibition of enzyme activity (percent) [1]: 25%
prodomain inhibition of enzyme activity (percent) [4]: 13%
prodomain inhibition of enzyme activity (percent) [2]: 9%
prodomain inhibition of enzyme activity (percent) [3]: 50%
B3: Pro ADAM 8 (mouse) (protein, UniProt Q05910 18-186, looked up, not shown: small tags and cut ends)
chain: GPPLPHVKQYEVVWPRRLAASRSRRALPSHWGQYPESLSYALGTSGHVFTLHLRKNRDLLGSSYTETYSAANGSEVTEQLQEQDHCLYQGHVEGYEGSAASISTCAGLRGFFRVGSTVHLIEPLDADEEGQHAMYQAKHLQQKAGTCGVKDTNLNDLGPRALEIYRAQP
